Laboratory results taken from US8097440B1, “Engineered microorganisms capable of producing target compounds under anaerobic conditions” (Gevo, Inc., priority 2008, dated 2012).

Key:
[1] = system: CC(C)C=O; assay: cells, lysate or membranes; conditions: conversion to isobutanol
[2] = substrate: CC(C)C=O; assay: Alcohol dehydrogenase kinetic assay, Ec_FucO; type: biochemical, E. coli; conditions: conversion to isobutanol
Procedure: (§1) E. coli strain GEVO1745 was transformed by electroporation with one of plasmids pGV1705-A, pGV1748-A, pGV1749-A, or pGV1778-A. 50 mL of TB medium (23.1 g/L KH2PO4, 125.4 g/L K2HPO4, 12 g/L Bacto-tryptone, 24 g/L yeast extract, 4 ml/L glycerol) were inoculated to an initial OD600 of 0.2 using a 3 mL overnight LB culture of a single colony. The 50 mL culture was allowed to grow for 3-4 hrs at 250 rpm and 37° C. Protein expression was induced at an OD600 of 2-2.5 by the addition of IPTG to a final concentration of 1 mM. After the addition of IPTG, protein expression was allowed to continue for 20-24 hours at 225 rpm and 25° C.
(§2) Alcohol dehydrogenase (ADH) activity was assayed kinetically by monitoring the decrease in NAD(P)H concentration by measuring the absorbance at 340 nm. A reaction buffer was prepared containing 0.1 M potassium phosphate, 0.4 mM NAD(P)H, 10 mM isobutyraldehyde, 1 mM DTT, and 1 mM PMSF. Cell pellets were resuspended in 0.1 M potassium phosphate buffer containing 1 mM DTT and 1 mM PMSF at one fifth of the culture volume, i.e. 10 mL resuspension buffer for cell pellet from a 50 mL culture. The resuspended cells were lysed by sonication for 1 min with a 50% duty cycle. The reaction was initiated by the addition of 0.5 mL of the reaction buffer to 0.5 mL of clarified lysate in a cuvette. […]

[3] = substrate: CC(C)C=O; assay: Alcohol dehydrogenase kinetic assay, Dm_Adh; type: biochemical, Drosophila melanogaster; conditions: conversion to isobutanol
Procedure: as §1, §2

[4] = substrate: NC(=O)C1=CN([C@@H]2O[C@H](COP(=O)(O)OP(=O)(O)OC[C@H]3O[C@@H](n4cnc5c(N)ncnc54)[C@H](O)[C@@H]3O)[C@@H](O)[C@H]2O)C=CC1; assay: KARI cuvette assay, purified Ec_IlvC^Q110A-his6; type: biochemical, E. coli
Procedure: (§3) KARI cuvette assay: KARI activity was assayed kinetically by monitoring the decrease in NAD(P)H concentration by measuring the absorbance at 340 nm. A reaction buffer was prepared containing 250 mM potassium phosphate pH 7, 1 mM DTT and 10 mM MgCl2. Cell pellets were resuspended (0.25 g wet weight/mL buffer) in 250 mM potassium phosphate (KPi) buffer containing 1 mM DTT and 10 mM MgCl2. The resuspended cells were lysed by sonication for 1 min with a 50% duty cycle and pelleted at 11000×g and 4° C. for 15 min. A reaction mixture consisting of 910 μl reaction buffer, 50 μl acetolactate, and 20 μl lysate was prepared in a cuvette. The reaction was initiated by addition of 20 μL of 10 mM NAD(P)H. A substrate free control was conducted using reaction buffer without the addition of acetolactate.
(§4) Purification of KARI: Cell pellets used for purification were resuspended in purification buffer A (20 mM Tris, 20 mM imidazol, 100 mM NaCl, 10 mM MgCl2, pH 7.4). KARI was purified by IMAC (Immobilized metal affinity chromatography) over a 1 ml Histrap High Performance (histrap HP) column pre-charged with Nickel (GE Healthcare) using an Akta FPLC system (GE Healthcare). […]

[5] = substrate: NC(=O)C1=CN([C@@H]2O[C@H](COP(=O)(O)OP(=O)(O)OC[C@H]3O[C@@H](n4cnc5c(N)ncnc54)[C@H](O)[C@@H]3O)[C@@H](O)[C@H]2O)C=CC1; assay: KARI cuvette assay, purified Ec_IlvC^Q110V-his6; type: biochemical, E. coli
Procedure: as §3, §4

[6] = substrate: NC(=O)C1=CN([C@@H]2O[C@H](COP(=O)(O)OP(=O)(O)OC[C@H]3O[C@@H](n4cnc5c(N)ncnc54)[C@H](OP(=O)(O)O)[C@@H]3O)[C@@H](O)[C@H]2O)C=CC1; assay: KARI assay, purified Ec_IlvC^P2D1-his6; type: biochemical, E. coli; conditions: other: expressed in yeast GEVO1186, purified; 30.0 °C
Procedure: as §3
(§5) Purification of KARI: Cell pellets used for purification were resuspended in purification buffer A (20 mM Tris, 20 mM imidazol, 100 mM NaCl, 10 mM MgCl2, pH 7.4). KARI was purified by IMAC (Immobilized metal affinity chromatography) over a 1 ml Histrap High Performance (histrap HP) column pre-charged with Nickel (GE Healthcare) using an Akta FPLC system (GE Healthcare). The column was equilibrated with four column volumes (cv) of buffer A. After injecting the crude extract, the column was washed with buffer A for 2 cv, followed by a wash step with a mixture of 10% elution buffer B (20 mM Tris, 300 mM imidazol, 100 mM NaCl, 10 mM MgCl2, pH 7.4) for 5 cv. KARI variants were eluted at 40% buffer B and stored at 4° C.
(§6) Improved variants were expressed and purified from GEVO1186. 20 mL SC-URA medium overnight cultures were grown at 30° C. and 250 rpm in 250 mL flasks and were then used to inoculate 96 well deep well plates on the next morning. 50 μL of the overnight cultures were transferred into 600 μL SC-URA medium per well. The plates were then grown at 30° C. and 250 rpm in a humidified plate shaker for 8 h. In order to the harvest, the cultures were transferred into 50 mL Falcon tubes and then spun down at 4° C. and 5,000 rpm for 10 min. The pellets were frozen until they were processed and purified as described in Example 14 above.
(§7) Results: Two rounds of error-prone PCR and screening were carried out. The libraries (˜2400 clones per library) were screened using the KARI high-throughput assay. […] In the first round variant Ec_llvC^P2D1-his6 (SEQ ID NO: 38), encoded by Ec_ilvC_coSc^P2D1-his6 (SEQ ID NO: 37) was identified carrying the following mutations: D146G and G185R. This variant served as parent for the second round of error-prone PCR and screening which yielded variant Ec_llvC^P2D1-A1-his6 (SEQ ID NO: 42), encoded by Ec_ilvC_coSc^P2D1-A1-his6 (SEQ ID NO: 41) with one additional mutation (K433E). A two-fold improvement of the specific activity in lysate and in the purified enzyme was observed after two rounds of error-prone PCR.

[7] = substrate: NC(=O)C1=CN([C@@H]2O[C@H](COP(=O)(O)OP(=O)(O)OC[C@H]3O[C@@H](n4cnc5c(N)ncnc54)[C@H](O)[C@@H]3O)[C@@H](O)[C@H]2O)C=CC1; assay: KARI assay, purified Ec_IlvC^P2D1-his6; type: biochemical, E. coli; conditions: other: expressed in yeast GEVO1186, purified; 30.0 °C
Procedure: as §3, §5, §6, §7

[8] = other: purified, acetolactate as substrate

Molecule: Klebsiella pneumoniae propanediol dehydrogenase Kp_DhaT, SEQ ID NO: 63 (Klebsiella pneumoniae)
- Km ([1]; other: NADH as cofactor): 1.3 mM
- Km ([1]; other: NADPH as cofactor): 0.6 mM

B1: Escherichia coli propanediol dehydrogenase Ec_FucO, SEQ ID NO: 65 (Escherichia coli K-12) (protein)
chain: MMANRMILNETAWFGRGAVGALTDEVKRRGYQKALIVTDKTLVQCGVVAKVTDKMDAAGLAWAIYDGVVPNPTITVVKEGLGVFQNSGADYLIAIGGGSPQDTCKAIGIISNNPEFADVRSLEGLSPTNKPSVPILAIPTTAGTAAEVTINYVITDEEKRRKFVCVDPHDIPQVAFIDADMMDGMPPALKAATGVDALTHAIEGYITRGAWALTDALHIKAIEIIAGALRGSVAGDKDAGEEMALGQYVAGMGFSNVGLGLVHGMAHPLGAFYNTPHGVANAILLPHVMRYNADFTGEKYRDIARVMGVKVEGMSLEEARNAAVEAVFALNRDVGIPPHLRDVGVRKEDIPALAQAALDDVCTGGNPREATLEDIVELYHTAW
notes: clarified crude lysate
- Km ([2]; other: NADH as cofactor): 0.8 mM
- Km ([2]; other: NADPH as cofactor): 0.2 mM

B2: Drosophila melanogaster alcohol dehydrogenase Dm_Adh, SEQ ID NO: 61 (Drosophila melanogaster) (protein)
chain: MSFTLTNKNVIFVAGLGGIGLDTSKELLKRDLKNLVILDRIENPAAIAELKAINPKVTVTFYPYDVTVPIAETTKLLKTIFAQLKTVDVLINGAGILDDHQIERTIAVNYTGLVNTTTAILDFWDKRKGGPGGIICNIGSVTGFNAIYQVPVYSGTKAAVVNFTSSLAKLAPITGVTAYTVNPGITRTTLVHTFNSWLDVEPQVAEKLLAHPTQPSLACAENFVKAIELNQNGAIWKLDLGTLEAIQWTKHWDSGI
notes: clarified crude lysate
- Km ([3]; other: NADH as cofactor): 0.9 mM
- Km ([3]; other: NADPH as cofactor): 2.7 mM

B3: E. coli KARI Ec_IlvC variant Ec_IlvC^Q110A-his6 (Q110A), SEQ ID NO: 21 (Escherichia coli K-12; Q110A) (protein)
chain: MANYFNTLNLRQQLAQLGKCRFMGRDEFADGASYLQGKKVVIVGCGAQGLNQGLNMRDSGLDISYALRKEAIAEKRASWRKATENGFKVGTYEELIPQADLVINLTPDKAHSDVVRTVQPLMKDGAALGYSHGFNIVEVGEQIRKDITVVMVAPKCPGTEVREEYKRGFGVPTLIAVHPENDPKGEGMAIAKAWAAATGGHRAGVLESSFVAEVKSDLMGEQTILCGMLQAGSLLCFDKLVEEGTDPAYAEKLIQFGWETITEALKQGGITLMMDRLSNPAKLRAYALSEQLKEIMAPLFQKHMDDIISGEFSSGMMADWANDDKKLLTWREETGKTAFETAPQYEGKIGEQEYFDKGVLMIAMVKAGVELAFETMVDSGIIEESAYYESLHELPLIANTIARKRLYEMNVVISDTAEYGNYLFSYACVPLLKPFMAELQPGDLGKAIPEGAVDNGQLRDVNEAIRSHAIEQVGKKLRGYMTDMKRIAVAGLEHHHHH
- kcat/Km [4, 8]: 11100 M⁻¹ s⁻¹
- kcat/Km ([4]; with NADH): 302000 M⁻¹ s⁻¹

B4: E. coli KARI Ec_IlvC variant Ec_IlvC^Q110V-his6 (Q110V), SEQ ID NO: 23 (Escherichia coli K-12; Q110V) (protein)
chain: MANYFNTLNLRQQLAQLGKCRFMGRDEFADGASYLQGKKVVIVGCGAQGLNQGLNMRDSGLDISYALRKEAIAEKRASWRKATENGFKVGTYEELIPQADLVINLTPDKVHSDVVRTVQPLMKDGAALGYSHGFNIVEVGEQIRKDITVVMVAPKCPGTEVREEYKRGFGVPTLIAVHPENDPKGEGMAIAKAWAAATGGHRAGVLESSFVAEVKSDLMGEQTILCGMLQAGSLLCFDKLVEEGTDPAYAEKLIQFGWETITEALKQGGITLMMDRLSNPAKLRAYALSEQLKEIMAPLFQKHMDDIISGEFSSGMMADWANDDKKLLTWREETGKTAFETAPQYEGKIGEQEYFDKGVLMIAMVKAGVELAFETMVDSGIIEESAYYESLHELPLIANTIARKRLYEMNVVISDTAEYGNYLFSYACVPLLKPFMAELQPGDLGKAIPEGAVDNGQLRDVNEAIRSHAIEQVGKKLRGYMTDMKRIAVAGLEHHHHHH
- kcat/Km [5, 8]: 24800 M⁻¹ s⁻¹
- kcat/Km ([5]; with NADH): 569000 M⁻¹ s⁻¹

B5: E. coli KARI Ec_IlvC variant Ec_IlvC^P2D1-his6 (Ec_IlvC^6E6-his6 with D146G and G185R), SEQ ID NO: 38 (Escherichia coli K-12; A71S/D146G/G185R/Q110V/R76D/S78D) (protein)
chain: MANYFNTLNLRQQLAQLGKCRFMGRDEFADGASYLQGKKVVIVGCGAQGLNQGLNMRDSGLDISYALRKESIAEKDADWRKATENGFKVGTYEELIPQADLVINLTPDKVHSDVVRTVQPLMKDGAALGYSHGFNIVEVGEQIRKGITVVMVAPKCPGTEVREEYKRGFGVPTLIAVHPENDPKREGMAIAKAWAAATGGHRAGVLESSFVAEVKSDLMGEQTILCGMLQAGSLLCFDKLVEEGTDPAYAEKLIQFGWETITEALKQGGITLMMDRLSNPAKLRAYALSEQLKEIMAPLFQKHMDDIISGEFSSGMMADWANDDKKLLTWREETGKTAFETAPQYEGKIGEQEYFDKGVLMIAMVKAGVELAFETMVDSGIIEESAYYESLHELPLIANTIARKRLYEMNVVISDTAEYGNYLFSYACVPLLKPFMAELQPGDLGKAIPEGAVDNGQLRDVNEAIRSHAIEQVGKKLRGYMTDMKRIAVAGHHHHHH
- Km [6]: 1432 µM
- kcat [6]: 0.54 s⁻¹
- kcat/Km [6]: 377 M^−1 * S^−1
- Km [7]: 40 µM
- kcat [7]: 3.3 s⁻¹
- kcat/Km [7]: 82,650 M^−1 * S^−1
